Substrate: O=CC(O)COP(=O)(O)O
Test: purified protein
Format: biochemical, Saccharomyces cerevisiae
Settings: 1 mM ribose-5-phosphate, 10 mM ammonium sulfate (20 mM NH4), 50 mM Tris-HCl pH 8.0, 37 °C, 85 µM Snz3p, no glutaminase subunit, racemic D/L substrate

B1: Snz3p (Saccharomyces cerevisiae S288C) (protein)
chain: MSEFKVKTGLAQMLKGGVIMDVVTPEQAIIAERAGACAVMALERIPADMRKSGQVCRMSDPRMIKEIMEAVSIPVMAKVRIGHFVEAQILEELQVDYIDESEVLTPADWTHHIEKHNFKVPFVCGAKDLGEALRRINEGAAMIRTKGEAGTGDVSEAVKHITKIKAEIQQYKENLKTESDFAAKATELRVPVDLLKTTLSEGKLPVVNFAAGGVATPADAALLMQLGCEGVFVGSGIFKSSDPEKLACAIVEATTHYDNPAKLLQVSSDLGDLMGGISIQSINEAGGKNGARLSEIGW
notes: full-length SNZ3 in pTEV5 (NheI/NcoI), His6 tag removed with rTEV, expressed in E. coli BL21-AI; assayed without Sno glutaminase subunit
Km: 290 ± 30 µM
kcat: 0.0007 s⁻¹
